This note sets out measurements from patent publication US12570711B2, “Platforms for co-stimulation, novel car designs and other enhancements for adoptive cellular therapy” (Angeles Therapeutics, Inc., priority 2017, dated 2026).

One assay relates to RAJI-Luc cells. The experiment in a line: NSG mice xenografted with RAJI-Luc cells, CD19-CAR T cells with FKBP-fusion modules, with or without AP20187. The assay is classed as in vivo, mouse. Particulars: AP20187 40 μg every day for 10 days intraperitoneal. The protocol:
T cells expressing the CAR and these accessory modules are tested using in vitro assays in the absence and presence of the dimerizer AP20187 (100 nM). […] Half the mice in each group (n =6) are administered 40 μg of AP20187 every day for 10 days by intraperitoneal injection as described previously (Chinnery et al, J Immunol 2009; 182:2738-2744).

Assay [1] deals with T1, human MPL (Homo sapiens, UniProt P40238).
T1 construct: endogenous in cells; host or cells: HEL-92.1.7 (HEL) cells
T1 sequence (P40238 26-635): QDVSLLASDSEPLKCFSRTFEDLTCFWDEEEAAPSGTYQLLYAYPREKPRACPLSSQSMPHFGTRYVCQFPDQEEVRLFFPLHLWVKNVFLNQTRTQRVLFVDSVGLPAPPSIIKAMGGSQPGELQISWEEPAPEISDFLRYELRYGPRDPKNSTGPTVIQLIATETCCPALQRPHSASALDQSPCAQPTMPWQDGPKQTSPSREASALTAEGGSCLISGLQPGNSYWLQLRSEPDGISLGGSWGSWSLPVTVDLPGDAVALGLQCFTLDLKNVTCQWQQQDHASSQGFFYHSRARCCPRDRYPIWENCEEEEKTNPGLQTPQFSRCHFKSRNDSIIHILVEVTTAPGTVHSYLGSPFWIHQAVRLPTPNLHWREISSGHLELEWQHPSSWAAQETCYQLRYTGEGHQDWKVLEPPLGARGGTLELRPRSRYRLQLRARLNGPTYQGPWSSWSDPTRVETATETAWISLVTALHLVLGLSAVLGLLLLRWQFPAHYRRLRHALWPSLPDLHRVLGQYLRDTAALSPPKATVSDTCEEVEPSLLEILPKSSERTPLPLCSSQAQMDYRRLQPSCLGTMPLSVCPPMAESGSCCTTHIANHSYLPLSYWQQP
Kind of assay: NFAT-driven GFP expression and IL2 production of parental and TCR-deficient J-N-G cells exposed to HEL.92.1.7 cells. Particulars: MPL-specific TFP-expressing J-N-G cells with the corresponding TCR chain knocked out; HEL.92.1.7 co-culture. It is filed as cell-based. An excerpt: Jurkat-NFAT-GFP (J-N-G) cells (T cell lymphoma) are infected with lentiviral vectors expressing gRNAs targeting TCRα and TCRβ1/β2 constant chains and coexpressing Streptococcus Pyogenes Cas9. The exemplary gRNA target sequences for TCRα chains are given in SEQ ID NO: 7754 and 7755. The exemplary gRNA target sequences for TCRβ1/β2 chains are given in SEQ ID NO: 7756-7758. In an alternative embodiment, the TCRα and TCRβ1/β2 constant chain loci are targeting using gRNA and TALONs as described in Knipping F et al, Molecular Therapy: Methods & Clinical Development, Vol 4, 2017. J-N-G cells lacking the expression of TCRα or TCRβ1/β2 chains are purified by cell sorting using antibodies directed against TCR/CD3 complex. […] Expression of TFPs in the cells is determined by immunostaining with Protein L staining and by staining with MPL-ECD-GGSG-NLuc-AcVS fusion protein (SEQ ID NO: 4923). J-N-G parental cells show robust TFP expression on cell surface while J-N-G cells lacking TCRα or TCRβ1/β2 chains show poor to absent TFP expression. The different populations of J-N-G cells are exposed to HEL.92.1.7 target cells for 24 hours and examined for increase in NFAT-promoter driven GFP expression and IL2 production. J-N-G parental cells expressing MPL-specific TFPs show marked increase in GFP fluorescence and IL2 secretion upon co-culture with HEL.92.1.7 cells. […]

The target in assay [2] is T1, human MPL. The experiment in a line: Jurkat-NFAT-EGFP (J-N-G) reporter: EGFP induction upon co-culture with HEL cells. The assay is classed as cell-based. Particulars: 4 h. The text has this: Jurkat cell line (clone E6-1) engineered with a NFAT-dependent EGFP (or GFP) reporter gene was a gift from Dr. Arthur Weiss at University of California San Francisco and have been described to study CAR-signaling ((Wu, C Y et al., Science 350:293-302, 2015). Jurkat cells were maintained in RPMI-1640 medium supplemented with 10% FBS, penicillin and streptomycin.
The murine monoclonal antibody 161 targets human MPL (Thrombopoietin receptor o TPO-R). To generate a CAR targeting MPL but with reduced immunogenicity, sequence of the scFV fragment comprising the antigen binding domain of the murine 161 antibody was humanized. […] Jurkat-NFAT-EGFP (J-N-G) cells were stably transduced with the lentivirus encoding the humanized MPL-hu-161-2 CAR construct. The parental and CAR-expressing Jurkats were subsequently cocultured with HEL cells and induction of EGFP expression monitored by FACS analysis after 4 h.
The murine monoclonals 175 and 111 also bind human MPL. […] The experiment is repeated as in the preceding example.
The sequence of these TFP CAR constructs is shown in SEQ ID NO: 3526 to 3533. […]
Several Ab-TCR are constructed targeting MPL based on murine 161 scFV as the antigen binding domain. […] T cells expressing MPL Ab-TCRs are shown to induce lysis of HEL-GLuc cells as measured by increase in GLuc activity. […]

Regarding `CC[C@H](C(=O)N1CCCC[C@H]1C(=O)O[C@H](CCc1ccc(OC)c(OC)c1)c1cccc(OCC(=O)NCC(CNC(=O)COc2cccc([C@@H](CCc3ccc(OC)c(OC)c3)OC(=O)[C@@H]3CCCCN3C(=O)[C@@H](CC)c3cc(OC)c(OC)c(OC)c3)c2)CN(C)C)c1)c1cc(OC)c(OC)c(OC)c1` [AP20187], the “expansion of CAR-T cells in vivo” value in the assay with RAJI-Luc cells is reported as “promote the expansion of CAR-T cells”.

B1: IgSP-[hTRAC-opt2]: codon optimized TCRα constant chain with signal peptide (protein)
chain: MDWIWRILFLVGAATGAHSFEGGTRFEGGLEIQNPDPAVYQLRDSKSSDKSVCLFTDFDSQTNVSQSKDSDVYITDKTVLDMRSMDFKSNSAVAWSNKSDFACANAFNNSIIPEDTFFPSPESSCDVKLVEKSFETDTNLNFQNLSVIGFRILLLKVAGFNLLMTLRLWSS
Consider B1, for which the “TFP surface expression, GFP expression and IL2 secretion after expression of the constant chain” value with human MPL [1] was “increased expression of TFP on the cell surface and induction of GFP expression and IL2 secretion”.

B2: IgSP-[hTRBC-opt2]: codon optimized TCRβ constant chain with signal peptide (protein)
chain: MDWIWRILFLVGAATGAHSFEGGTREDLKNVFPPEVAVFEPSEAEISHTQKATLVCLATGFYPDHVELSWWVNGKEVHSGVSTDPQPLKEQPALNDSRYCLSSRLRVSATFWQNPRNHFRCQVQFYGLSENDEWTQDRAKPVTQIVSAEAWGRADCGFTSESYQQGVLSATILYEILLGKATLYAVLVSALVLMAMVKRKDSRG
As for B2, in the assay with human MPL [1], the “TFP surface expression, GFP expression and IL2 secretion after expression of the constant chain” value was “increased expression of TFP on the cell surface and induction of GFP expression and IL2 secretion”.

B3: MPL-hu-161-2: 2nd generation CAR (41BB, CD3z) with humanized 161 scFv hu-161-2 targeting human MPL (protein)
chain: MALPVTALLLPLALLLHAARPDVVMTQSPSSLSASVGDRVTITCMASEDIYIRLAWYQQKPGNAPKLLIYAATSLETGVPSRFSGSGSGTDFTLTISSLQPEDFATYYCQQYWSSPWTFGGGTKVEIKGGGGSGGGGSGGGGSQVQLQESGPGLVKPSQTLSLTCTVSGYSITSDYTWNWIRQPPGNGLEWIGYITYSGSTSYNPSLKSRVLISVDTSKNQVSLKLSSVTAADTAVYYCARLGRRYTMDYWGQGTTVTVSSTREQKLISEEDLAKPTTTPAPRPPTPAPTIASQPLSLRPEACRPAAGGAVHTRGLDFACDIYIWAPLAGTCGVLLLSLVITLYCKRGRKKLLYIFKQPFMRPVQTTQEEDGCSCRFPEEEEGGCELRVKFSRSADAPAYQQGQNQLYNELNLGRREEYDVLDKRRGRDPEMGGKPRRKNPQEGLYNELQKDKMAEAYSEIGMKGERRRGKGHDGLYQGLSTATKDTYDALHMQALPPRSSGSGEGRGSLLTCGDVEENPGPHMTEYKPTVRLATRDDVPRAVRTLAAAFADYPATRHTVDPDRHIERVTELQELFLTRVGLDIGKVWVADDGAAVAVWTTPESVEAGAVFAEIGPRMAELSGSRLAAQQQMEGLLAPHRPKEPAWFLATVGVSPDHQGKGLGSAVVLPGVEAAERAGVPAFLETSAPRNLPFYERLGFTVTADVEVPEGPRTWCMTRKPGA
modifications: Synthetic Polynucleotide encoding a CAR with optional accessory module(s)
B3: the EGFP expression entry with human MPL [2] was “increase in EGFP expression”.
